The test has as its target His-FOR20 (UniProt Q96NB1). In words: pull-down; purified His-FOR20 (1 μM) and tubulin dimers (1–8 μM) on ice for 1 h, Ni-NTP beads 30 min, supernatant and pellet on Coomassie gel, band intensities fitted to n identical independent sites; apparent Kd.
UniProt Q96NB1, sequence (Q96NB1 whole entry): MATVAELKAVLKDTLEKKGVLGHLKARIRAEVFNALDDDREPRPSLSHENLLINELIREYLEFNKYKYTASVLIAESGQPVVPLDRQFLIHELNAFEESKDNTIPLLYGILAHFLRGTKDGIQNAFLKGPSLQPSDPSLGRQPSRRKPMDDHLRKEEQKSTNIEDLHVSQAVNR

With “free tubulin dimers (αβ-tubulin heterodimers) (from UniProt P02550 1-451; P02554 1-445) (complex)”, the Kd was 3.5 µM and the stoichiometry N (tubulin dimers per FOR20) stood at 6.

Values taken from publication PMC5583970.
